Experimental data taken from patent publication US20140031259A1.

Assays:
[1] = biological target: AKT1 kinase domain (WT) fused to the Gal4 DNA binding domain (UniProt P04386); assay: cell-based or functional assay
[2] = biological target: AKT1 D323H kinase domain fused to the Gal4 DNA binding domain (UniProt P04386); assay: cell-based or functional assay

| Substance | luciferase reporter interaction signal in mammalian 2-hybrid assay, compared to WT-PH/WT-KD or E17K-PH/WT-KD [1] [% reduction] | luciferase reporter interaction signal in mammalian 2-hybrid assay, compared to WT-PH/WT-KD or E17K-PH/WT-KD [2] [% reduction] |
| --- | --- | --- |
| AKT1 L52R PH domain fused to the VP16 activation domain (from UniProt P31749 5-108) | 50 | – |
| AKT1 PH domain (WT) fused to the VP16 activation domain (from UniProt P31749 5-108) | – | 50 |
